Reference: patent US20140087995A1 (published 2014)
Each block holds one binder with its values, some of them ahead of it. Numbered stars: 1 amine (or outer) side, 2 acyl side, 3 side chain; on linkers, the order of the positions; unused ones are H or OH. Bridge positions count the residues as written; N and C are the ends. Side chains are listed from the residue outwards. Ends that are not written are not given here. * marks the point of attachment. C20 diacid = O=C(O)CCCCCCCCCCCCCCCCCCC(=O)*; C18 diacid = O=C(O)CCCCCCCCCCCCCCCCC(=O)*; C16 diacid = O=C(O)CCCCCCCCCCCCCCC(=O)*; γGlu = O=C(O)[C@H](CCC(=O)[*:2])N[*:1]; C14 diacid = O=C(O)CCCCCCCCCCCCC(=O)*; AEEA = NCCOCCOCC(=O)O

Tests used:
[1] = biological target: T1, human calcitonin receptor (human, UniProt P30988 25-474); test: cell-based or functional assay
T1 sequence (looked up): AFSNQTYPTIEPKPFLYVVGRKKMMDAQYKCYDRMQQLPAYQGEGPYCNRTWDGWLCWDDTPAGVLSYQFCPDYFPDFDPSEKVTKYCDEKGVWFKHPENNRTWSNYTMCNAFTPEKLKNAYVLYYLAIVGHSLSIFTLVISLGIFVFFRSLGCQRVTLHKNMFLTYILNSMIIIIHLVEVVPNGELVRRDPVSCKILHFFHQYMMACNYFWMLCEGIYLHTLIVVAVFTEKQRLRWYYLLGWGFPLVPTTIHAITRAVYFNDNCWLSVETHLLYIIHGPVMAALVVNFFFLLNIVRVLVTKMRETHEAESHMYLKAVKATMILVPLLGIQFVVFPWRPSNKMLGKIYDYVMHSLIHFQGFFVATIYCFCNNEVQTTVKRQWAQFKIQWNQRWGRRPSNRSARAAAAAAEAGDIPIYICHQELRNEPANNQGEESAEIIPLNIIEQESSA

[2] = biological target: T2, rat amylin receptor (rat calcitonin receptor + rat RAMP 3) (rat, UniProt P32214 25-516; Q9JJ73 23-147); test: SPA competition binding, displacement of 125I-rat amylin from membranes of BHK tk'ts 13 cells transfected with rat calcitonin receptor + rat RAMP 3 (Assay VI)
T2 construct: whole, on cells; Used as membranes prepared from the transfected cells (Assay VI); also called rAmylin-R; rat amylin 3(a) receptor
T2 sequence (looked up) 1: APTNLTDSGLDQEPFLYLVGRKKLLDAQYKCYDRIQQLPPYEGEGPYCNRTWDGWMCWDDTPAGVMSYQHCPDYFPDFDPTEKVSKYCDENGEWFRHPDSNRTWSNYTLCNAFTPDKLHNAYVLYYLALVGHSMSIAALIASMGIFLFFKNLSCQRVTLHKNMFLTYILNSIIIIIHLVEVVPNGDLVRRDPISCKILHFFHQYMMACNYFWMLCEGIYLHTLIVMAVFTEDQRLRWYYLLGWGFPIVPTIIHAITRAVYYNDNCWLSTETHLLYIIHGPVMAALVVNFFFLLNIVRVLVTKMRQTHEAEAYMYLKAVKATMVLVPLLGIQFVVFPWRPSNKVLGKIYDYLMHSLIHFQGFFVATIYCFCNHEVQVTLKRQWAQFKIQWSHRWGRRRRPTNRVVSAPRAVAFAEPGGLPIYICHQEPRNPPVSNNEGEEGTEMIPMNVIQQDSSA
T2 sequence (looked up) 2: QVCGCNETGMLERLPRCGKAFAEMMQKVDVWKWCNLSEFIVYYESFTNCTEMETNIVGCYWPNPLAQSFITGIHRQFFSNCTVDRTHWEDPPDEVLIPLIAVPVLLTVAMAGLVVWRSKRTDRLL

[3] = biological target: T3, rat calcitonin receptor (rat, UniProt P32214 25-516); test: SPA competition binding, displacement of 125I-calcitonin from membranes of BHK tk'ts 13 cells transfected with rat calcitonin receptor (Assay VIII)
T3 construct: whole, on cells; Used as membranes prepared from the transfected cells (Assay VIII); also called rCTR; rat calcitonin (a) receptor
T3 sequence (looked up): T2 sequence (looked up) 1

[4] = biological target: T3, rat calcitonin receptor; test: ratio of IC50 on rat calcitonin receptor (Assay VIII) to IC50 on rat amylin receptor (Assay VI)
[5] = biological target: T4, human calcitonin receptor (human, UniProt P30988 25-474); test: ratio of IC50 on human calcitonin receptor (Assay VII) to IC50 on human amylin receptor (Assay V)
T4 construct: whole, on cells; Used as membranes prepared from the transfected cells (Assay VII); also called hCTR; hCT
T4 sequence (looked up): T1 sequence (looked up)
How it was run: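 Competition binding by SPA uses membrane preparations (35 ng/μL final) in pH 7.4 Hepes buffer with 1 mM CaCl2 and 5 mM MgCl₂. Incubation lasts 120 min at 25° C, and IC₅₀ comes from one-site fitting.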

Binder: K([AEEA-AEEA-γGlu-C20 diacid])CNTATCATQRLANFLRHSSPNFGAIPSSTNVGPNTY-NH2 (disulfide 2-7 (inferred), also called compound 98)
Ratio hCT/hAmylin funct. [1]: 19.5

Binder: K([γGlu-C16 diacid])CNTATCATQRLANFLRHSSPNFGAIPSSTNVGHNTY-NH2 (disulfide 2-7 (inferred)) [N^ε1-[(4S)-4-carboxy-4-(15-carboxypentadecanoylamino)butanoyl]-[Arg17,Pro21,Pro27,His34]-h-amylin]
Ratio hCT/hAmylin funct. [1]: 65.1

Binder: K([AEEA-C20 diacid])CNTATCATQRLANFLRHSSPNFGAIPSSTNVGHNTY-NH2 (disulfide 2-7 (inferred), also called compound 91) [N^ε1-[2-[2-[2-(19-carboxynonadecanoylamino)ethoxy]ethoxy]acetyl]-[Arg17,Pro21,Pro27,His34]-h-amylin]
Ratio hCT/hAmylin funct. [1]: 36.9

Binder: K([AEEA-AEEA-γGlu-C20 diacid])CNTATCATQRLANFLRHSSPNFGAIPSSTNVGRNTY-NH2 (disulfide 2-7 (inferred), also called compound 95)
Ratio hCT/hAmylin funct. [1]: 33

Binder: K([γGlu-C14 diacid])CNTATCATQRLANFLRHSSPNFGAIPSSTNVGHNTY-NH2 (disulfide 2-7 (inferred)) [N^ε1-[(4S)-4-carboxy-4-(13-carboxytridecanoylamino)butanoyl]-[Arg17,Pro21,Pro27,His34]-h-amylin]
Ratio hCT/hAmylin funct. [1]: 38.8

Binder: K([AEEA-AEEA-γGlu-C20 diacid])CNTATCATQRLANFLRHSSPNFGAIPSSTPVGSNTY-NH2 (disulfide 2-7 (inferred), also called compound 96)
Ratio hCT/hAmylin funct. [1]: 21

Binder: K([AEEA-AEEA-γGlu-C20 diacid])CNTATCATQRLANFLRHSSPNFGAIPSSTNVGHNTY-NH2 (disulfide 2-7 (inferred), also called compound 97)
Ratio hCT/hAmylin funct. [1]: 33

Binder: K([γGlu-C20 diacid])CNTATCATQRLADFLRHSSPNFGAIPSSTNVGPRTY-NH2 (disulfide 2-7 (inferred))
Ratio hCT/hAmylin funct. [1]: 24.9

Binder: K([γGlu-C18 diacid])CNTATCATQRLANFLRHSSPNFGAIPSSTNVGHNTY-NH2 (disulfide 2-7 (inferred)) [N^ε1-[(4S)-4-carboxy-4-(17-carboxyheptadecanoylamino)butanoyl]-[Arg17,Pro21,Pro27,His34]-h-amylin]
Ratio hCT/hAmylin funct. [1]: 60.9

The next lines start with the values.

Ratio hCT/hAmylin funct. [1]: 17.3
Binder: K([γGlu-γGlu-C20 diacid])CNTATCATQRLAEFLRHSSNNPGAILSSTNVGPETY-NH2 (disulfide 2-7 (inferred))

Ratio hCT/hAmylin funct. [1]: 28
Binder: K([γGlu-γGlu-C20 diacid])CNTATCATQRLAHFLRHSSPNFGAIPSSTNVGSNTY-NH2 (disulfide 2-7 (inferred), also called compound 92)

Ratio hCT/hAmylin funct. [1]: 17
Binder: K([γGlu-C20 diacid])CNTATCATQRLAEFLRHSSPNFGAIPSSTNVGPRTY-NH2 (disulfide 2-7 (inferred))

Ratio hCT/hAmylin funct. [1]: 16.4
Binder: K([γGlu-γGlu-C20 diacid])CNTATCATQRLAEFLRHSSPNFGAIPSSTNVGPHTY-NH2 (disulfide 2-7 (inferred))

Ratio hCT/hAmylin funct. [1]: 26
Binder: K([γGlu-γGlu-C20 diacid])CNTATCATQRLANFLRHSSPNFGAIPSSTPVGPRTY-NH2 (disulfide 2-7 (inferred))

Ratio hCT/hAmylin funct. [1]: 15.8
Binder: K([γGlu-γGlu-C20 diacid])CNTATCATQRLAEFLRHSSPNFGAIPSSTNVGHETY-NH2 (disulfide 2-7 (inferred))

Ratio hCT/hAmylin funct. [1]: 44.9
Binder: K([γGlu-γGlu-C20 diacid])CNTATCATQRLADFLRHSSPNFGAIPSSTNVGPRTY-NH2 (disulfide 2-7 (inferred), also called compound 130)

Ratio hCT/hAmylin funct. [1]: 29.3
Binder: K([γGlu-γGlu-C20 diacid])CNTATCATQRLAEFLRHSSPNFGAIPSSTNVGPRTY-NH2 (disulfide 2-7 (inferred), also called compound 110)

IC50 [2]: 0.339 nM
IC50 [3]: 15.4 nM
Ratio rCT/rAmylin binding [4]: 45.5
Ratio hCT/hAmylin binding [5]: 38.6
B1: N^ε1-[(4S)-4-carboxy-4-(19-carboxynonadecanoylamino)butanoyl]-[Glu14,Arg17,Pro21,Pro27,Pro34,Arg35]-h-amylin (peptide)
peptide: K([γGlu-C20 diacid])CNTATCATQRLAEFLRHSSPNFGAIPSSTNVGPRTY-NH2
modifications: disulfide 2-7; N-terminus assumed
SMILES: CC[C@H](C)[C@H](NC(=O)[C@H](C)NC(=O)CNC(=O)[C@H](Cc1ccccc1)NC(=O)[C@H](CC(N)=O)NC(=O)[C@@H]1CCCN1C(=O)[C@H](CO)NC(=O)[C@H](CO)NC(=O)[C@H](Cc1c[nH]cn1)NC(=O)[C@H](CCCNC(=N)N)NC(=O)[C@H](CC(C)C)NC(=O)[C@H](Cc1ccccc1)NC(=O)[C@H](CCC(=O)O)NC(=O)[C@H](C)NC(=O)[C@H](CC(C)C)NC(=O)[C@H](CCCNC(=N)N)NC(=O)[C@H](CCC(N)=O)NC(=O)[C@@H](NC(=O)[C@H](C)NC(=O)[C@@H]1CSSC[C@H](NC(=O)[C@@H](N)CCCCNC(=O)CC[C@H](NC(=O)CCCCCCCCCCCCCCCCCCC(=O)O)C(=O)O)C(=O)N[C@@H](CC(N)=O)C(=O)N[C@@H]([C@@H](C)O)C(=O)N[C@@H](C)C(=O)N[C@@H]([C@@H](C)O)C(=O)N1)[C@@H](C)O)C(=O)N1CCC[C@H]1C(=O)N[C@@H](CO)C(=O)N[C@@H](CO)C(=O)N[C@H](C(=O)N[C@@H](CC(N)=O)C(=O)N[C@H](C(=O)NCC(=O)N1CCC[C@H]1C(=O)N[C@@H](CCCNC(=N)N)C(=O)N[C@H](C(=O)N[C@@H](Cc1ccc(O)cc1)C(N)=O)[C@@H](C)O)C(C)C)[C@@H](C)O
notes: not restated for each compound

IC50 [2]: 0.161 nM
IC50 [3]: 140 nM
Ratio rCT/rAmylin binding [4]: 868
Ratio hCT/hAmylin binding [5]: 45.3
B2: N^ε1-[(4S)-4-carboxy-4-[[(4S)-4-carboxy-4-(19-carboxynonadecanoylamino)butanoyl]amino]butanoyl]-[Ser14,Arg17,Pro21,Pro27,Pro34,Glu35]-h-amylin (peptide)
peptide: K([γGlu-γGlu-C20 diacid])CNTATCATQRLASFLRHSSPNFGAIPSSTNVGPETY-NH2
modifications: disulfide 2-7; N-terminus assumed
SMILES: CC[C@H](C)[C@H](NC(=O)[C@H](C)NC(=O)CNC(=O)[C@H](Cc1ccccc1)NC(=O)[C@H](CC(N)=O)NC(=O)[C@@H]1CCCN1C(=O)[C@H](CO)NC(=O)[C@H](CO)NC(=O)[C@H](Cc1c[nH]cn1)NC(=O)[C@H](CCCNC(=N)N)NC(=O)[C@H](CC(C)C)NC(=O)[C@H](Cc1ccccc1)NC(=O)[C@H](CO)NC(=O)[C@H](C)NC(=O)[C@H](CC(C)C)NC(=O)[C@H](CCCNC(=N)N)NC(=O)[C@H](CCC(N)=O)NC(=O)[C@@H](NC(=O)[C@H](C)NC(=O)[C@@H]1CSSC[C@H](NC(=O)[C@@H](N)CCCCNC(=O)CC[C@H](NC(=O)CC[C@H](NC(=O)CCCCCCCCCCCCCCCCCCC(=O)O)C(=O)O)C(=O)O)C(=O)N[C@@H](CC(N)=O)C(=O)N[C@@H]([C@@H](C)O)C(=O)N[C@@H](C)C(=O)N[C@@H]([C@@H](C)O)C(=O)N1)[C@@H](C)O)C(=O)N1CCC[C@H]1C(=O)N[C@@H](CO)C(=O)N[C@@H](CO)C(=O)N[C@H](C(=O)N[C@@H](CC(N)=O)C(=O)N[C@H](C(=O)NCC(=O)N1CCC[C@H]1C(=O)N[C@@H](CCC(=O)O)C(=O)N[C@H](C(=O)N[C@@H](Cc1ccc(O)cc1)C(N)=O)[C@@H](C)O)C(C)C)[C@@H](C)O
notes: not restated for each compound; also called compound 120
